Target: T1, human FcεRIα (alpha chain of the high affinity IgE receptor FcεRI) (human, UniProt P12319 26-257)
T1 construct: whole, on cells; also called huFcεRIα; hu FcεRIα
T1 sequence (looked up): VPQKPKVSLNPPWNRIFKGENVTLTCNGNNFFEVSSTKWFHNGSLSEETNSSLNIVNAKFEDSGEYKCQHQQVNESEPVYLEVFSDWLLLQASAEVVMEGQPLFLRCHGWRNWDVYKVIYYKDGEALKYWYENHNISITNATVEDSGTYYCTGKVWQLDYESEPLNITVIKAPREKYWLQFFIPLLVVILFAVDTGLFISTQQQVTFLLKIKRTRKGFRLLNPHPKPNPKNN
Assay: not described

binding result: binds
B1: IE7 anti-huFcεRIα mAb (mouse IgG1, hybridoma ATCC PTA-125115) (antibody, V domains shown)
VH: QVQLQESGGDVVKPGGSLKLSCAASGFTFSFYGMSWVRQTPDKKLEWVATISGGGNYTYYPDSVKGRFTISRDNAMNTLYLQMNSLKSEDTAMYYCVRAYYGNWNSYWGQGTLVTVS
VL: DIVMTQTPSSMYASLGERVTITCKASQDINNYLSWFQQKPGRSPKTLIYRANRLMDGVPSRIRGSGSGQDYSLTISSLEYEDMGIYYCLLYNEFPWMFGGGTKLEIKR
notes: Original hybridoma antibody, mouse IgG1; also called mAb IE7

From patent US20210371519A1 (UNIVERSITY OF CINCINNATI, published 2021)
